We go through nine molecules from article PMC4007430.

Numbering of substitutions follows the chain as printed.

In assay [1] the target is T1, CCL22 labeled with Alexa Fluor 647, O00626.
T1 chain: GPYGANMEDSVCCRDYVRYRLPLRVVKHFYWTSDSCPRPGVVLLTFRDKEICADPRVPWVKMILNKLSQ
As to the kind of experiment: flow cytometry on cells. To be noted: chain shown with the change;; parent: est. 47; read off a plot.

For assay [2], the target named is CCL2 labeled with Alexa Fluor 647, P13500. As to the kind of experiment: flow cytometry on cells. To be noted: read off a plot. On the technique in general: A flow cytometer gives signals particle by particle.
Where [3] appears, read: chain shown with the change;, parent: est. 195.

CCL2 labeled with Alexa Fluor 647, P13500, sequence (P13500 24-99): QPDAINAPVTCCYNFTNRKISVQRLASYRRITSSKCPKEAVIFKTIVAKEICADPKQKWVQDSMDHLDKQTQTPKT

B1: HA-ACKR2 (epitope-tagged human ACKR2, wild type), O00590 YYYDY to FFYDF (first, second and fourth tyrosines of the motif to F) (protein)
chain: MAATASPQPLATEDADSENSSFFFYDFLDEVAFMLCRKDAVVSFGKVFLPVFYSLIFVLGLSGNLLLLMVLLRYVPRRRMVEIYLLNLAISNLLFLVTLPFWGISVAWHWVFGSFLCKMVSTLYTINFYSGIFFISCMSLDKYLEIVHAQPYHRLRTRAKSLLLATIVWAVSLAVSIPDMVFVQTHENPKGVWNCHADFGGHGTIWKLFLRFQQNLLGFLLPLLAMIFFYSRIGCVLVRLRPAGQGRALKIAAALVVAFFVLWFPYNLTLFLHTLLDLQVFGNCEVSQHLDYALQVTESIAFLHCCFSPILYAFSSHRFRQYLKAFLAAVLGWHLAPGTAQASLSSCSESSILTAQEEMTGMNDLGERQSENYPNKEDVGNKSA
Consider B1, for which the response in assay [1] is 18 MFI.

B2: HA-ACKR2 (epitope-tagged human ACKR2, wild type), O00590 YYYDY to YYFDY (third tyrosine of the motif to F) (protein)
chain: B1 chain with F23Y, F24Y, Y25F, F27Y
For the molecule B2, the response in assay [2] (setting [3]) came to 180 MFI.

B3: HA-ACKR2 (epitope-tagged human ACKR2, wild type), O00590 YYYDY to FYYDY (first tyrosine of the motif to F) (protein)
chain: B1 chain with F24Y, F27Y
In the case of B3, the response in assay [2] (setting [3]) amounted to 180 MFI.

B4: HA-ACKR2 (epitope-tagged human ACKR2, wild type), O00590 YYYDY to YFYDY (second tyrosine of the motif to F) (protein)
chain: B1 chain with F23Y, F27Y
For the molecule B4, the response in assay [1] came to 71 MFI.

B5: HA-ACKR2 (epitope-tagged human ACKR2, wild type), O00590 YYYDY to FFFDY (first, second and third tyrosines of the motif to F) (protein)
chain: B1 chain with Y25F, F27Y
Turning to B5, in assay [1], the response stood at 24 MFI.

B6: HA-ACKR2 (epitope-tagged human ACKR2, wild type), O00590 YYYDY to YYYDF (fourth tyrosine of the motif to F) (protein)
chain: B1 chain with F23Y, F24Y
On to B6, for which the response in assay [2] (setting [3]) was 180 MFI.

B7: HA-ACKR2 (epitope-tagged human ACKR2, wild type), O00590 YYYDY to FYFDF (first, third and fourth tyrosines of the motif to F) (protein)
chain: B1 chain with F24Y, Y25F
Turning to B7, the response in assay [1] is 19 MFI.

B8: HA-ACKR2 (epitope-tagged human ACKR2, wild type), O00590 YYYDY to YFFDF (second, third and fourth tyrosines of the motif to F) (protein)
chain: B1 chain with F23Y, Y25F
Regarding B8, the response in assay [1] came out at 22 MFI.

B9: HA-ACKR2 (epitope-tagged human ACKR2, wild type), O00590 YYYDY to FFFDF (all four tyrosines of the motif to F) (protein)
chain: B1 chain with Y25F
As to B9, the response was 3 MFI in assay [2] (chain shown with the change, 10 µg/ml Alexa-CCL2, parent: est. 28); 3 MFI in assay [2] (chain shown with the change, 20 µg/ml Alexa-CCL2, parent: est. 37); 6 MFI in assay [2] (chain shown with the change, 30 µg/ml Alexa-CCL2, parent: est. 54); 26 MFI in assay [2] (setting [3]); 7.5 MFI in assay [1].
